Experimental data as given in paper PMC5892705 (Science signaling, 2017).

What was measured:
murine oxytocin receptor = biological target: T1, murine oxytocin receptor (mouse, UniProt P97926 1-388); experiment: cell-based or functional assay
T1 sequence: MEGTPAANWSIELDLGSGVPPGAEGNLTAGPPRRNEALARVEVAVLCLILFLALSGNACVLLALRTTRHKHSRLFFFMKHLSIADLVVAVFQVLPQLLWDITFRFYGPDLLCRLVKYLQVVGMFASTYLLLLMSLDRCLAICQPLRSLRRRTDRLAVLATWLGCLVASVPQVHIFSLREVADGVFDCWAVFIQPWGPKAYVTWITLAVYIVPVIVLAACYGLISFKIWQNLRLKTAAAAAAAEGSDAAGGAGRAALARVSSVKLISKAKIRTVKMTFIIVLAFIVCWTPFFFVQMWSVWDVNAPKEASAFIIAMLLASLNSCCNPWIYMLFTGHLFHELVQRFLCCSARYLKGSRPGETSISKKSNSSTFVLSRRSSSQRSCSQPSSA

human oxytocin receptor = biological target: T2, human oxytocin receptor (human, UniProt P30559 1-389); experiment: cell-based or functional assay
T2 sequence: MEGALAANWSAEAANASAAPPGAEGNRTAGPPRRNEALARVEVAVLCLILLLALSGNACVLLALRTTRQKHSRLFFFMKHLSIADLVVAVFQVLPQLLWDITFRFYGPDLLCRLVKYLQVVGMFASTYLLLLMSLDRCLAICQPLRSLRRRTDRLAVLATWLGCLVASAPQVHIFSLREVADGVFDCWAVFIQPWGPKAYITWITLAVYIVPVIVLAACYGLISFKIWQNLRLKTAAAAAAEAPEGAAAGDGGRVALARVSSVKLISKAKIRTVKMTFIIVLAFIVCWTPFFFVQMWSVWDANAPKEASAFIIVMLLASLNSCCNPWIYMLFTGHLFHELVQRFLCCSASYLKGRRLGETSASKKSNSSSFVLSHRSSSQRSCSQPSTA

[1] = biological target: human vasopressin V1a receptor (human, UniProt P37288 1-418); experiment: cell-based or functional assay
[2] = biological target: murine vasopressin V2 receptor (mouse, UniProt O88721 1-371); experiment: radioligand binding
Sequence of murine vasopressin V2 receptor (O88721 whole entry): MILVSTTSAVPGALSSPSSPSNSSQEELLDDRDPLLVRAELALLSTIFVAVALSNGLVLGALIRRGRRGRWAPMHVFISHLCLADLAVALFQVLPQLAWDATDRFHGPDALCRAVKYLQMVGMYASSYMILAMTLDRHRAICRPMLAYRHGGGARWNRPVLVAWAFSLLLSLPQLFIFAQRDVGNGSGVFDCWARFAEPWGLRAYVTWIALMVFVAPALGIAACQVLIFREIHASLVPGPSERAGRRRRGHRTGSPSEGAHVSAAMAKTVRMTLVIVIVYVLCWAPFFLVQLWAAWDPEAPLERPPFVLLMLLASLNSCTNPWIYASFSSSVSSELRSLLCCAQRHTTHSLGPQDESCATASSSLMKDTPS

Sequence of human vasopressin V1a receptor (P37288 whole entry): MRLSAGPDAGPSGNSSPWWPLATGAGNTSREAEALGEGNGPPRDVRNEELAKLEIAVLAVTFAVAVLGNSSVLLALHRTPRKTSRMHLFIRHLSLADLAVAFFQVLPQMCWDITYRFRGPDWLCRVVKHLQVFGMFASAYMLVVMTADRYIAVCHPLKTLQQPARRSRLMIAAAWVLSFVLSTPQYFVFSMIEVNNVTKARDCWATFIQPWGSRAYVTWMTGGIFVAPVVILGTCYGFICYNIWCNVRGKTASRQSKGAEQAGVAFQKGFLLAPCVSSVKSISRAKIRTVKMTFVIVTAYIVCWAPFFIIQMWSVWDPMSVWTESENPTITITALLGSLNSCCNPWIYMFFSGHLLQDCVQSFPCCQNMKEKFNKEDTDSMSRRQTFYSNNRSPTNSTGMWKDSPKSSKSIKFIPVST

B1: [Se-Se]-OT-OH (peptide)
chain: UYIQNUPLG
modifications: selenocysteine at positions 1 and 6, joined by a diselenide bond; C-terminal acid instead of the amide
For B1, the “HTRF IP1 accumulation in transfected HEK293 cells, Emax” value (murine oxytocin receptor) was 43%, the “HTRF IP1 accumulation in transfected COS-1 cells, EC50” value (human oxytocin receptor) was 38 nM and the “tissue bath, contraction amplitude of strips of pregnant human myometrium, EC50” value (human oxytocin receptor) was 5.89 nM. The “FLIPR Ca2+ mobilization, EC50” value [1] was > 10 µM and the “Ki1 (bi-phasic binding curve)” value [2] was 0.71 nM.
